Source: patent US20200299375A1 (TILLOTTS PHARMA, published 2020)
Residue numbers refer to the chain shown, from its start. Names may count otherwise.

B1: 17-22-B03-sc08 (scFv)
scFv: MDIQMTQSPSSLSASVGDRVTITCQASQSISSYLAWYQQKPGKAPKLLIYKASTLASGVPSRFSGSGSGTDFTLTISSLQPEDFATYYCQCTYYEPSYVFRAFGGGTKLTVLGGGGGSGGGGSGGGGSGGGGSEVQLVESGGGLVQPGGSLRLSCKASGIDFSAGYDMCWVRQAPGKGLEWIACIDSRREESDYASWAKGRFTISKDSSKNTVYLQMNSLRAEDTAVYYCARGGYGGDGVDGAFDPWGQGTLVTVSS
notes: Humanized scFv, CDR-grafted light chain and structural-grafted heavy chain (CDR/STR); also called 17-22-B03-sc08 (CDR/STR); domain shuffled variant
B2: 17-22-B03-sc02 (scFv)
scFv: B1 scFv with T23K, D71E, S78D, Q80E, E82A
notes: Humanized scFv, structural graft (STR); also called 17-22-B03-sc02 (STR); structural graft
B3: 17-22-B03-sc12 (scFv)
scFv: B1 scFv with C91S
notes: Humanized scFv, CDR(C90S)/STR design; also called 17-22-B03-sc12 (CDR(C90S)/STR)
B4: recombinant human TNFβ (ligand, UniProt P01374 35-205, looked up)
chain: LPGVGLTPSAAQTARQHPKMHLAHSTLKPAAHLIGDPSKQNSLLWRANTDRAFLQDGFSLSNNSLLVPTSGIYFVYSQVVFSGKAYSPKATSSPLYLAHEVQLFSSQYPFHVPLLSSQKMVYPGLQEPWLHSMYHGAAFQLTQGDQLSTHTDGIPHLVLSPSTVFFGAFAL

How the values were obtained:
[1] = biological target: T1, recombinant human TNFα (human, UniProt P01375 77-233); experiment: cell-based or functional assay
[2] = biological target: T2, recombinant Cynomolgus monkey TNFα (Cynomolgus monkey (Macaca fascicularis), UniProt P79337 77-233); experiment: cell-based or functional assay
[3] = biological target: T3, Rhesus monkey TNFα (Rhesus monkey (Macaca mulatta), UniProt P48094 77-233); experiment: cell-based or functional assay
[4] = biological target: T1, recombinant human TNFα; experiment: SPR (MASS-1), TNFα immobilised by amine coupling, scFv injected 45 to 1.4 nM
Method: (§1) In a second step, for the best performing scFvs, Single Injection Cycle Kinetics (SiCK) were measured from a single injection cycle by simultaneously injecting six analyte samples at different concentrations into each of the eight parallel channels in the MASS-1 system. […] The apparent dissociation (kd) and association (kₐ) rate constants and the apparent dissociation equilibrium constant (KD) were calculated with the MASS-1 analysis software (Analyzer, Sierra Sensors) using one-to-one Langmuir binding model and quality of the fits was monitored based on Chi², which is a measure for the quality of the curve fitting. The smaller the value for the Chi² the more accurate is the fitting to the one-to-one Langmuir binding model. For affinity screenings, results were deemed valid if the Chi² was below 10 for the concentration analyzed. In cases where several scFv concentrations were analyzed, results were deemed valid if the average Chi^t over all the concentrations tested was below 10.

[5] = biological target: T1, recombinant human TNFα; experiment: inhibition ELISA, biotinylated human TNFα (960 pM) on coated TNFRI-Fc, scFv varied
Method: (§2) For the first inhibition ELISA, the extracellular domain of TNFRI fused to the Fc region of human IgG (R&D Systems, Cat. No. 372-RI) was coated on a 96-well Maxisorp ELISA at a concentration of 0.5 μg/mL. For the second inhibition ELISA, the extracellular domain of TNFRII fused to the Fc region of human IgG (R&D Systems, Cat. No. 726-R2) was coated at a concentration of 2 μg/mL. All subsequent steps were identical for both assays.

[6] = biological target: T1, recombinant human TNFα; experiment: inhibition ELISA, biotinylated human TNFα (960 pM) on coated TNFRII-Fc, scFv varied
Method: as §2

[7] = biological target: B4; experiment: competition ELISA, coated scFv, biotinylated TNFα, unlabeled TNFβ or TNFα as competitor
Method: (§3) For this purpose, the scFvs were coated on a 96-well Maxisorp ELISA plate at a concentration of 1 μg/mL. […] To control precision of the response, the dose-response curves were analyzed in duplicate.

[8] = biological target: T3, Rhesus monkey TNFα; experiment: SPR, TNFα immobilised, scFv injected
[9] = biological target: T2, recombinant Cynomolgus monkey TNFα; experiment: SPR (MASS-1), TNFα immobilised by amine coupling, scFv injected 45 to 1.4 nM
Method: as §1

[10] = biological target: T3, Rhesus monkey TNFα; experiment: as above
Method: as §1

[11] = biological target: T1, recombinant human TNFα; experiment: inhibition ELISA: biotinylated human TNFα pre-incubated with the scFv, binding to coated TNFRI-Fc detected with streptavidin-HRP [panel 17-22-B03-sc12]
Method: as §2

[12] = biological target: T1, recombinant human TNFα; experiment: inhibition ELISA: biotinylated human TNFα pre-incubated with the scFv, binding to coated TNFRII-Fc detected with streptavidin-HRP [panel 17-22-B03-sc12]
Method: as §2

[13] = biological target: B1; experiment: competition ELISA, coated scFv, biotinylated TNFα (75 ng/mL), unlabeled TNFβ varied
Method: as §3

[14] = biological target: B3; experiment: as above
Method: as §3

[15] = biological target: B2; experiment: as above
Method: as §3

T2 sequence (P79337 77-233 limits assumed): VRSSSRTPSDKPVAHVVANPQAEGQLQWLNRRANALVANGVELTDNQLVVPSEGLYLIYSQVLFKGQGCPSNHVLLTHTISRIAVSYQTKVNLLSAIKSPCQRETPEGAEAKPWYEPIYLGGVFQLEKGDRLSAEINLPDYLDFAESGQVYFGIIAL
T1 sequence (P01375 77-233 limits assumed): as the sequence (P79337 77-233 limits assumed) above, with V37L, T44R, N72T, L138R counted along it
T3 sequence (P48094 77-233 limits assumed): as the sequence (P79337 77-233 limits assumed) above, with V37L counted along it

| Binder | Potency (L929 assay), rel. IC50 (IC50 Infliximab/IC50 scFv, ng/mL) [1] | Potency (L929 assay), rel. IC90 (IC90 Infliximab/IC90 scFv, ng/mL) [1] | Species-specificity IC50 [ng/mL], L929 assay, human TNFα [1] | Species-specificity IC50 [ng/mL], L929 assay, cyno TNFα [2] | Species-specificity IC50 [ng/mL], L929 assay, rhesus TNFα [3] | Kd [4] | koff [4] | kon [4] | IC50 [5] | rel. IC50 (IC50 Infliximab/IC50 scFv), blocking of TNF-TNFRI interaction [5] | rel. IC90 (IC90 Infliximab/IC90 scFv), blocking of TNF-TNFRI interaction [5] | IC50 [6] | rel. IC50 (IC50 Infliximab/IC50 scFv), blocking of TNF-TNFRII interaction [6] | rel. IC90 (IC90 Infliximab/IC90 scFv), blocking of TNF-TNFRII interaction [6] | Target selectivity, rel. IC50 of TNFβ vs TNFα [7] | Kd [9] | koff [9] | kon [9] | Kd [10] | koff [10] | other results |
| --- | --- | --- | --- | --- | --- | --- | --- | --- | --- | --- | --- | --- | --- | --- | --- | --- | --- | --- | --- | --- | --- |
| B1 | 26 ratio | 26.6 ratio | 0.4 ng/mL | 0.5 ng/mL | 0.4 ng/mL | 0.061 nM | 6.8e-05 s⁻¹ | 1.1e+06 M⁻¹ s⁻¹ | 0.0212 µg/mL | 2.3 ratio | 2.5 ratio | 0.0353 µg/mL | 2.8 ratio | 2.7 ratio | > 10000 fold | – | – | – | – | – | – |
| B2 | 23.7 ratio | 29.4 ratio | 0.5 ng/mL | 0.6 ng/mL | 0.3 ng/mL | 0.052 nM | 5.9e-05 s⁻¹ | 1.1e+06 M⁻¹ s⁻¹ | 0.0334 µg/mL | 1.5 ratio | 1.4 ratio | 0.0711 µg/mL | 1.4 ratio | 1.8 ratio | > 10000 fold | 0.05 nM | 6e-05 s⁻¹ | 1.2e+06 M⁻¹ s⁻¹ | 0.15 nM | 0.00011 s⁻¹ | fold difference in affinity against human TNFα [8]: ~3 fold; kon [10]: 710000 M⁻¹ s⁻¹ |
| B3 | 13.4 ratio | 11.7 ratio | 0.6 ng/mL | 0.8 ng/mL | 0.9 ng/mL | 0.048 nM | 4e-05 s⁻¹ | 830000 M⁻¹ s⁻¹ | – | 1.5 ratio | – | – | 2.1 ratio | – | > 10000 fold | 0.07 nM | 5.2e-05 s⁻¹ | 750000 M⁻¹ s⁻¹ | 0.24 nM | 0.0002 s⁻¹ | kon [10]: 830000 M⁻¹ s⁻¹; IC50 (read off the curve) [11]: ~0.03 µg/mL; IC50 (read off the curve) [12]: ~0.03 µg/mL |
| B4 | – | – | – | – | – | – | – | – | – | – | – | – | – | – | – | – | – | – | – | – | IC50 [13]: > 1250 µg/mL; IC50 [14]: > 1250 µg/mL; IC50 [15]: > 1250 µg/mL |
